Laboratory results from US20250161478A1 (GLYKOS FINLAND, published 2025).
Like-named read-outs stand apart in the source and are kept apart here.

Legend:
Test in all cases: cell-based or functional assay
[1] = molecular target: T1, TYRP1 antigen on human melanoma cells (IGR-1, SK-MEL-30, SK-MEL-28) (human, UniProt P17643 25-537)
[2] = molecular target: T1, TYRP1 antigen on human melanoma cells …; remark: listed apart in the source
[3] = molecular target: T2, CD33 on leukemia cell lines (HL-60, MOLM-13, KG-1, K-562) (UniProt P20138 18-364, limits assumed)
[4] = molecular target: T1, TYRP1 antigen on human melanoma cells …; remark: listed apart in the source
[5] = molecular target: T2, CD33 on leukemia cell lines (HL-60, …); remark: listed apart in the source
[6] = molecular target: T2, CD33 on leukemia cell lines (HL-60, …); remark: listed apart in the source
[7] = molecular target: T1, TYRP1 antigen on human melanoma cells …; remark: listed apart in the source
[8] = molecular target: T1, TYRP1 antigen on human melanoma cells …; remark: listed apart in the source
[9] = molecular target: T1, TYRP1 antigen on human melanoma cells …; remark: listed apart in the source

T2 sequence (P20138 18-364 limits assumed): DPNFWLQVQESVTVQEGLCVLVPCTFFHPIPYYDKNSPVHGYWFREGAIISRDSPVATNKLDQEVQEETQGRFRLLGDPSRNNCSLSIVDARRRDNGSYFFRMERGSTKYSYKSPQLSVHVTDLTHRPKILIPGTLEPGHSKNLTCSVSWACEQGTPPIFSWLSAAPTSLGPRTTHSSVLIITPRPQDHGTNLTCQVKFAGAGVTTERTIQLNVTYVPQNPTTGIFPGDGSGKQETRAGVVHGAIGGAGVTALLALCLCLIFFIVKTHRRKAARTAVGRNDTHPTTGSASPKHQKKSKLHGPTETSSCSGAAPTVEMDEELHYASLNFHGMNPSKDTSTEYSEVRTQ

B1: FLCPeMa (cysteine engineered flanvotumab HC N299C conjugated with MA-Ac-EDA-PNU), DAR 1.7 (antibody, human IgG1, kappa)
heavy: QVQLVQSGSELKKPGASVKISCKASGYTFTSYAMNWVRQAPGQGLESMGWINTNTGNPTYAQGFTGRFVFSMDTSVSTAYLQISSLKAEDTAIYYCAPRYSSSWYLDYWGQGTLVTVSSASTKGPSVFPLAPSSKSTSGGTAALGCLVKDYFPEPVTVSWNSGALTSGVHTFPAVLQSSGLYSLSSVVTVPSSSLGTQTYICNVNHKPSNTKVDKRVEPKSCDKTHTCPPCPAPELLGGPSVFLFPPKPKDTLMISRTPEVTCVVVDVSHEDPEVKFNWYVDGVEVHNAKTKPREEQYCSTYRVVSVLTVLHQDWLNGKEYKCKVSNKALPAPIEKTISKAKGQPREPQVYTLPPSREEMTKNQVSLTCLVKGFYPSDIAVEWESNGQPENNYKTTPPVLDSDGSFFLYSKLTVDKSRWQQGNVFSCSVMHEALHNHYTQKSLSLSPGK
light: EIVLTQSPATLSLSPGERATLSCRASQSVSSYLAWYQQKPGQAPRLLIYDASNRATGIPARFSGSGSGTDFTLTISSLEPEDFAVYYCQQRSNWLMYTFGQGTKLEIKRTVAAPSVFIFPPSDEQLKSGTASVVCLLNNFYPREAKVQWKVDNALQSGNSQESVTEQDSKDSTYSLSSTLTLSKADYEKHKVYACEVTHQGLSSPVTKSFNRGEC
modifications: PeMa linker-payload (maleimidoacetyl-EDA-PNU) on the engineered cysteine (N299C); DAR 1.7
[1]
  IC50, cell viability (PrestoBlue), IGR-1 cells: 1.2 nM
  IC50, cell viability (PrestoBlue), SK-MEL-30 cells: 22 nM

B2: FLCPeMcv (cysteine engineered flanvotumab HC N299C conjugated with MA-caproyl-Val-Cit-PAB-EDA-PNU), DAR 1.4 (antibody, human IgG1, kappa)
heavy: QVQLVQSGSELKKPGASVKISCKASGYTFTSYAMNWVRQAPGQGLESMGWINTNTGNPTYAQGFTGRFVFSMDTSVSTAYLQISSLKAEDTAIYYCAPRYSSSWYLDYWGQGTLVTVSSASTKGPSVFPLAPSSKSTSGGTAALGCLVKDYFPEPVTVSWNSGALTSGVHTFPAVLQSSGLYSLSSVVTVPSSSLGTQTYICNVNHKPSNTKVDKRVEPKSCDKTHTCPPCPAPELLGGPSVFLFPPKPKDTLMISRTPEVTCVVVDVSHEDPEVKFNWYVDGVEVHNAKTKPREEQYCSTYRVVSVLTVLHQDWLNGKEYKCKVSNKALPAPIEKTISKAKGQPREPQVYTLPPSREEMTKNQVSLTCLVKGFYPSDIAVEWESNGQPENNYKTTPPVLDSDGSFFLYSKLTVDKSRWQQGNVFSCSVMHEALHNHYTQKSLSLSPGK
light: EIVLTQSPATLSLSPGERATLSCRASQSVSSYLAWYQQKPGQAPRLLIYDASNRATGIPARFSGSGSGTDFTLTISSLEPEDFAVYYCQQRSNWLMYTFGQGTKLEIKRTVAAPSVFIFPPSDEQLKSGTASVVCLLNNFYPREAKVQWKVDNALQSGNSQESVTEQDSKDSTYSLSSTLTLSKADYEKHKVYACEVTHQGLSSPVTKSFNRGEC
modifications: PeMcv linker-payload (MA-caproyl-Val-Cit-PAB-EDA-PNU) on the engineered cysteine (N299C); DAR 1.4
[2]
  IC50, cell viability (PrestoBlue), IGR-1 cells: 0.414 to 0.716 nM
  IC50, cell viability (PrestoBlue), SK-MEL-30 cells: 2.8 to 4 nM

B3: GMAuM (gemtuzumab-maleimidoacetyl-β-Ala-Val-Ser(Glc)-PAB-MMAU), DAR 8 (antibody, human IgG4 S228P, kappa, V domains shown)
VH: EVQLVQSGAEVKKPGSSVKVSCKASGYTITDSNIHWVRQAPGQSLEWIGYIYPYNGGTDYNQKFKNRATLTVDNPTNTAYMELSSLRSEDTAFYYCVNGNPWLAYWGQGTLVTVSS
VL: DIQLTQSPSTLSASVGDRVTITCRASESLDNYGIRFLTWFQQKPGKAPKLLMYAASNQGSGVPSRFSGSGSGTEFTLTISSLQPDDFATYYCQQTKEVPWSFGQGTKVEVKR
modifications: AuM linker-payload on reduced interchain cysteine; AuM linker-payload (maleimidoacetyl-β-Ala-Val-Ser(Glc)-PAB-MMAU) on reduced interchain cysteines; DAR 8.0 in all
[3]
  IC50, cytotoxicity, HL-60 cells, 5 days: 0.583 nM
  IC50, cytotoxicity, K-562 (low CD33) cells, 3 days: 241 nM
  IC50, cytotoxicity, MOLM-13 cells, 3 days: 0.206 nM

B4: FLCPeMg (cysteine engineered flanvotumab HC N299C conjugated with MA-Ac-β-Ala-VS(GlcA)-EDA-PNU), DAR 2.2 (antibody, human IgG1, kappa)
heavy: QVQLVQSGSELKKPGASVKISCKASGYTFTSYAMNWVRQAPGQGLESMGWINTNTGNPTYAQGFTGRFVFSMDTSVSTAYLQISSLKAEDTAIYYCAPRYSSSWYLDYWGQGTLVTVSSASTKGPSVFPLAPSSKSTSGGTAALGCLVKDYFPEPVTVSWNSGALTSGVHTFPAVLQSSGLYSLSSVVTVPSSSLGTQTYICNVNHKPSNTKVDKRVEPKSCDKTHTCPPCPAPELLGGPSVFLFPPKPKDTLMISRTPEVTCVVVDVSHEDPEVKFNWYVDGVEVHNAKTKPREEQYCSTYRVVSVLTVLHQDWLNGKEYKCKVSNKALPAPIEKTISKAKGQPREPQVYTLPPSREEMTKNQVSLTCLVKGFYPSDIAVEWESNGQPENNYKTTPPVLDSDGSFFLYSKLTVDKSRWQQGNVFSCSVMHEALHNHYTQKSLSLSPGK
light: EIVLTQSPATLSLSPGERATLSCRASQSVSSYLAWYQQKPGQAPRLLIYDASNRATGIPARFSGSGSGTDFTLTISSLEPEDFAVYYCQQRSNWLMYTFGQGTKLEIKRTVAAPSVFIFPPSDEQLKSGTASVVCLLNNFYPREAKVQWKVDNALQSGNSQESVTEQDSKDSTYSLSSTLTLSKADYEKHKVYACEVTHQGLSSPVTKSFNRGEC
modifications: PeMg linker-payload (maleimidoacetyl-β-Ala-Val-Ser(GlcA)-EDA-PNU) on the engineered cysteine (N299C); DAR 2.2
[4]
  IC50, cell viability (PrestoBlue), IGR-1 cells: 0.417 to 0.484 nM
  IC50, cell viability (PrestoBlue), SK-MEL-30 cells: 4.3 to 10 nM

B5: LNCAuM (cysteine engineered lintuzumab HC N296C-maleimidoacetyl-β-Ala-Val-Ser(Glc)-PAB-MMAU), DAR 1.7 (antibody, human IgG1, kappa, V domains shown)
VH: QVQLVQSGAEVKKPGSSVKVSCKASGYTFTDYNMHWVRQAPGQGLEWIGYIYPYNGGTGYNQKFKSKATITADESTNTAYMELSSLRSEDTAVYYCARGRPAMDYWGQGTLVTVSS
VL: DIQMTQSPSSLSASVGDRVTITCRASESVDNYGISFMNWFQQKPGKAPKLLIYAASNQGSGVPSRFSGSGSGTDFTLTISSLQPDDFATYYCQQSKEVPWTFGQGTKVEIKR
modifications: AuM linker-payload (maleimidoacetyl-β-Ala-Val-Ser(Glc)-PAB-MMAU) on the engineered cysteine (N296C); DAR 1.7
[5]
  IC50, cytotoxicity, HL-60 cells, 5 days: 16 nM

B6: LNCAuMb (cysteine engineered lintuzumab HC N296C conjugated with branched N-MAL-N-bis(Peg2)-Val-Ser(Glc)-PAB-MMAU), DAR 3.3 (antibody, human IgG1, kappa, V domains shown)
VH: QVQLVQSGAEVKKPGSSVKVSCKASGYTFTDYNMHWVRQAPGQGLEWIGYIYPYNGGTGYNQKFKSKATITADESTNTAYMELSSLRSEDTAVYYCARGRPAMDYWGQGTLVTVSS
VL: DIQMTQSPSSLSASVGDRVTITCRASESVDNYGISFMNWFQQKPGKAPKLLIYAASNQGSGVPSRFSGSGSGTDFTLTISSLQPDDFATYYCQQSKEVPWTFGQGTKVEIKR
modifications: branched AuMb linker-payload (N-MAL-N-bis(Peg2)-Val-Ser(Glc)-PAB-MMAU) on the engineered cysteine (N296C); DAR 3.3
[6]
  IC50, cytotoxicity, HL-60 cells, 5 days: 2.2 nM

B7: CHPeD (glycoconjugated chimeric TA99-DBCO-Val-Ser(GlcA)-EDA-PNU ADC), DAR 2 (antibody, human IgG1, kappa, V domains shown)
VH: EVQLQQSGAELVRPGALVKLSCKTSGFNIKDYFLHWVRQRPDQGLEWIGWINPDNGNTVYDPKFQGTASLTADTSSNTVYLQLSGLTSEDTAVYFCTRRDYTYEKAALDYWGQGTTVTVST
VL: IQMSQSPASLSASVGETVTITCRASGNIYNYLAWYQQKQGKSPHLLVYDAKTLADGVPSRFSGSGSGTQYSLKISSLQTEDSGNYYCQHFWSLPFTFGSGTKLEIKR
modifications: DBCO-Val-Ser(GlcA)-EDA-PNU on GalNAz of the trimmed Fc N-glycan; DAR 2
[7]
  IC50, cell viability (PrestoBlue), IGR-1 cells: 1.4 nM
  IC50, cell viability (PrestoBlue), SK-MEL-28 cells: 55 nM
  IC50, cell viability (PrestoBlue), SK-MEL-30 cells: 5.7 nM

B8: CHAuM (chimeric TA99-maleimidoacetyl-β-Ala-Val-Ser(Glc)-PAB-MMAU), DAR 6 (antibody, human IgG1, kappa, V domains shown)
VH: EVQLQQSGAELVRPGALVKLSCKTSGFNIKDYFLHWVRQRPDQGLEWIGWINPDNGNTVYDPKFQGTASLTADTSSNTVYLQLSGLTSEDTAVYFCTRRDYTYEKAALDYWGQGTTVTVST
VL: IQMSQSPASLSASVGETVTITCRASGNIYNYLAWYQQKQGKSPHLLVYDAKTLADGVPSRFSGSGSGTQYSLKISSLQTEDSGNYYCQHFWSLPFTFGSGTKLEIKR
modifications: AuM linker-payload on reduced interchain cysteine; AuM linker-payload (maleimidoacetyl-β-Ala-Val-Ser(Glc)-PAB-MMAU) on reduced interchain cysteines; DAR 6 in all
[8]
  IC50, cell viability (PrestoBlue), IGR-1 cells: 2.2 nM
  IC50, cell viability (PrestoBlue), SK-MEL-28 cells: > 300 nM
  IC50, cell viability (PrestoBlue), SK-MEL-30 cells: 48 nM

B9: FLCPeMala (cysteine engineered flanvotumab HC N299C conjugated with MA-Ac-β-Ala-EDA-PNU), DAR 2.0 (antibody, human IgG1, kappa)
heavy: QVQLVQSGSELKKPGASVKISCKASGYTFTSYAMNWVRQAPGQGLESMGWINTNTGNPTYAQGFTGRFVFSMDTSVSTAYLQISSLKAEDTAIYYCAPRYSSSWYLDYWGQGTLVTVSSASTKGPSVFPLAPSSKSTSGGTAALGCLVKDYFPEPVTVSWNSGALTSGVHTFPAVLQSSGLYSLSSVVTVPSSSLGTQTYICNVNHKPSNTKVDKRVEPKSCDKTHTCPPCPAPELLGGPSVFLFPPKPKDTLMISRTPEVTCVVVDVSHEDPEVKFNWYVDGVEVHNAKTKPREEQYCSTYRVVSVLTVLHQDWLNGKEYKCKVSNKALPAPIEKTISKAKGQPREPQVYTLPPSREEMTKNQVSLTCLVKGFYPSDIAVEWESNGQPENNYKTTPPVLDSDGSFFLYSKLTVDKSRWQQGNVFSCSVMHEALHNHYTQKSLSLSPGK
light: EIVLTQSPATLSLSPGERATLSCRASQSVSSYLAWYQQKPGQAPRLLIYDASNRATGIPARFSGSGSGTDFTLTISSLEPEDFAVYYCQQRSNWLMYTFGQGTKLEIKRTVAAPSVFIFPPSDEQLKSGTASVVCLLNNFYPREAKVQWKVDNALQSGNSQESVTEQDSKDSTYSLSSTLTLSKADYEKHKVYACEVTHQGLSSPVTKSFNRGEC
modifications: PeMala linker-payload (maleimidoacetyl-β-Ala-EDA-PNU) on the engineered cysteine (N299C); DAR 2.0
[9]
  IC50, cell viability (PrestoBlue), IGR-1 cells: 0.649 nM
